Tests used:
[1] = molecular target: T1, human/llama-IPT chimeric c-Met ECD (human; Llama glama, UniProt P08581 25-567); assay: ELISA: 200 ng of the c-Met ECD protein coated on maxisorb plates; mAb dilutions 1 h RT; HRP-conjugated goat anti-human antibody, TMB, OD 620 nm
T1 construct: range 25-567;range 568-932; Human c-Met in which IPT1-4 is exchanged for the llama IPT1-4; also called human/llama IPT1-4; construct with the human SEMA-PSI; not shown: His tag

[2] = molecular target: T2, human c-Met ECD (aa 25-932) with His tag (human, UniProt P08581 25-932); assay: as above
T2 construct: range 25-932; Soluble protein from HEK293 cells; also called human c-Met (WT); not shown: His tag

[3] = molecular target: T3, Rhesus (Maccaca mulatta, US20090191580-5) c-Met ECD (Rhesus (Maccaca mulatta)); assay: binding ELISA, Rhesus c-Met ECD immobilised (1 µg/ml)
T3 construct: extracellular domain; also called Rhesus c-Met ECD; Rhesus ECD
Experimental: Cross reactivity to Rhesus (Maccaca mulatta, US20090191580_{—}5) c-Met ECD and mouse c-Met (R&D systems cat no: 527-ME) was performed in a binding ELISA. Rhesus ECD was immobilized in PBS (1 μg/ml) on a 96-well maxisorb plate and incubated at 4° C. over night. After blocking with 1% casein in PBS, the antibodies in dilutions starting with 10 μg/ml were added and allowed to bind for 1 h at room temperature. The plate was washed and a goat anti-human Fcγ antibody (Jackson) was added and incubated for 1 h at room temperature. After washing, TMB was added and the plate read at 620 nm

[4] = molecular target: T4, LI9 (aa572-909) llama-human c-Met chimera (human; Llama glama, UniProt P08581 25-595); assay: ELISA, 36C4 (2 µg/ml) immobilised, chimera added, streptavidin-HRP
T4 construct: range 1-571 (mature numbering, E=1; derived);range 572-909 (mature numbering, E=1); also called Ll9; not shown: Flag and strep tag
Text: (§1) An ELISA was run to investigate the binding of the mAbs to the different chimeras.

[5] = molecular target: T5, LI8 (aa540-909) llama-human c-Met chimera (human; Llama glama, UniProt P08581 25-563); assay: as above
T5 construct: range 1-539 (mature numbering, E=1; derived);range 540-909 (mature numbering, E=1); also called Ll8; not shown: Flag and strep tag
Text: as §1

[6] = molecular target: T6, LP6 (aa497-909) llama-human c-Met chimera (human; Llama glama, UniProt P08581 25-520); assay: as above
T6 construct: range 1-496 (mature numbering, E=1; derived);range 497-909 (mature numbering, E=1); not shown: Flag and strep tag
Text: as §1

[7] = molecular target: T7, LI11 (aa634-909) llama-human c-Met chimera (human; Llama glama, UniProt P08581 25-657); assay: as above
T7 construct: range 1-633 (mature numbering, E=1; derived);range 634-909 (mature numbering, E=1); also called Ll11; not shown: Flag and strep tag
Text: as §1

[8] = molecular target: T8, LI10 (aa608-909) llama-human c-Met chimera (human; Llama glama, UniProt P08581 25-631); assay: as above
T8 construct: range 1-607 (mature numbering, E=1; derived);range 608-909 (mature numbering, E=1); also called Ll10; not shown: Flag and strep tag
Text: as §1

[9] = molecular target: T9, LS1 (aa1-98) llama-human c-Met chimera (Llama glama; human, UniProt P08581 123-933); assay: as above
T9 construct: range 1-98 (mature numbering, E=1);range 99-909 (mature numbering, E=1; derived); not shown: Flag and strep tag
Text: as §1

[10] = molecular target: T10, LP7* (aa523-909) llama-human c-Met chimera (human; Llama glama, UniProt P08581 25-546); assay: as above
T10 construct: range 1-522 (mature numbering, E=1; derived);range 523-909 (mature numbering, E=1); not explained further; not shown: Flag and strep tag
Text: as §1

[11] = molecular target: T11, Decoy c-Met (extracellular domain of human c-Met) (human, UniProt P08581 25-932); assay: ELISA: c-Met ectodomain coated at 1 µg/ml on maxisorb plate; mAb in three-fold dilutions from 1 µg/ml, 1 h RT; HRP-conjugated Protein A, TMB, OD 450
T11 construct: extracellular domain; also called Decoy Met; monomeric Decoy Met

[12] = molecular target: T11, Decoy c-Met (extracellular domain of …); assay: binding ELISA, human c-Met (Decoy)
[13] = molecular target: T12, HMet (human c-Met of Table 16) (human, UniProt P08581 25-932, limits assumed); assay: ELISA, 36C4 (2 µg/ml) immobilised, c-Met construct added, streptavidin-HRP
T12 construct: Label not explained in the text; not shown: Flag and strep tag
Text: as §1

[14] = molecular target: T13, recombinant dimeric c-Met (R&D systems, 358-MT/CF) (human, UniProt P08581 25-932); assay: competition ELISA: recombinant dimeric c-Met (100 ng/ml) captured by coated mouse anti-His antibody; antibody dilutions 30 min, then 25 ng/ml N-terminally biotinylated HGF (the competitor); strep-HRP, TMB, 620 nm; percent competition against the controls
T13 construct: Bought product; also called Fc-Met; recombinant c-Met
Experimental: Competition with N-terminally biotinylated HGF for binding to immobilized c-Met was performed using an ELISA-based competition assay. Five μg/ml mouse anti-His antibodies (Serotech) was immobilized on a maxisorb plate and, after blocking with 1% casein in PBS for 2 h, 100 ng/ml recombinant dimeric c-Met was added and incubated for 1 h at room temperature. After washing, dilutions of the antibodies were added and allowed to bind to the captured c-Met for 30 minutes, before 25 ng/ml N-terminally biotinylated HGF (R&D systems, 294-HGN/CF) was added. Biotinylated HGF was incubated at room temperature for 1 h before washing. Horseradish-conjugated streptavidin (strep-HRP) was added and incubated for an additional hour. TMB was added and the plate read at 620 nm. An isotype control (hIgG1λ) was included as a control as well as murine 5D5 antibody. Competition was expressed as percentage competition as compared to the controls (strep-HRP only or hIgG1λ) and plotted against the concentration of antibodies. An IC₅₀ was calculated using GraphPad Prism (Table 10). Antibodies 13E6 and 20A11 only displaced HGF partially (about 50%), which may be related to the epitope these two mAbs recognize on the c-Met.

[15] = molecular target: T4, LI9 (aa572-909) llama-human c-Met …; assay: ELISA, 48A2 (2 µg/ml) immobilised, chimera added, streptavidin-HRP
Text: as §1

[16] = molecular target: T5, LI8 (aa540-909) llama-human c-Met …; assay: as above
Text: as §1

[17] = molecular target: T14, LS4 (aa1-348) llama-human c-Met chimera (Llama glama; human, UniProt P08581 373-933); assay: as above
T14 construct: range 1-348 (mature numbering, E=1);range 349-909 (mature numbering, E=1; derived); not shown: Flag and strep tag
Text: as §1

[18] = molecular target: T7, LI11 (aa634-909) llama-human c-Met …; assay: as above
Text: as §1

[19] = molecular target: T15, LS3 (aa1-287) llama-human c-Met chimera (Llama glama; human, UniProt P08581 312-933); assay: as above
T15 construct: range 1-287 (mature numbering, E=1);range 288-909 (mature numbering, E=1; derived); not shown: Flag and strep tag
Text: as §1

[20] = molecular target: T8, LI10 (aa608-909) llama-human c-Met …; assay: as above
Text: as §1

[21] = molecular target: T16, LS2 (aa1-199) llama-human c-Met chimera (Llama glama; human, UniProt P08581 224-933); assay: as above
T16 construct: range 1-199 (mature numbering, E=1);range 200-909 (mature numbering, E=1; derived); not shown: Flag and strep tag
Text: as §1

[22] = molecular target: T17, LS5 (aa1-448) llama-human c-Met chimera (Llama glama; human, UniProt P08581 473-933); assay: as above
T17 construct: range 1-448 (mature numbering, E=1);range 449-909 (mature numbering, E=1; derived); not shown: Flag and strep tag
Text: as §1

[23] = molecular target: T9, LS1 (aa1-98) llama-human c-Met chimera; assay: as above
Text: as §1

T9 sequence (P08581 123-933, change not shown): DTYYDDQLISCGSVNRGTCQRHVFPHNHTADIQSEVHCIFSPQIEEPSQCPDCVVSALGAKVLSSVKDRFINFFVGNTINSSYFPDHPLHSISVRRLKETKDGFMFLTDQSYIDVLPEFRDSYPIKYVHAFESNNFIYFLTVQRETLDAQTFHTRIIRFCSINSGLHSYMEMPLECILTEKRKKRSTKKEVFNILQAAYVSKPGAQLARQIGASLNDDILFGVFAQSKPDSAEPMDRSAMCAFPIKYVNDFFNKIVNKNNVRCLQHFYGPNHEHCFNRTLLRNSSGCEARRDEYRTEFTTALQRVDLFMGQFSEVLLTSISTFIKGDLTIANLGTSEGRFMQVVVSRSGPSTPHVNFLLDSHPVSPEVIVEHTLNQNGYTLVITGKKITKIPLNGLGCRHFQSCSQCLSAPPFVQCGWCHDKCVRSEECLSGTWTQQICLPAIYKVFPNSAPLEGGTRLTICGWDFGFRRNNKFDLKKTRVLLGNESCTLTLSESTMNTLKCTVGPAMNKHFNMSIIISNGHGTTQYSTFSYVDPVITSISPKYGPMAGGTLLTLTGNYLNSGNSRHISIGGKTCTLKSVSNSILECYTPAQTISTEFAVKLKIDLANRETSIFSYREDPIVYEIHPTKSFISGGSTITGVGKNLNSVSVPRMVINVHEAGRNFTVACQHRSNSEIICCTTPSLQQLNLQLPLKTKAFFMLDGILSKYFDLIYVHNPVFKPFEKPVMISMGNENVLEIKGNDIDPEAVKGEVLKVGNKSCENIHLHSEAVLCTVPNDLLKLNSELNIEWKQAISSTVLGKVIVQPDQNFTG
T7 sequence (P08581 25-657, change not shown): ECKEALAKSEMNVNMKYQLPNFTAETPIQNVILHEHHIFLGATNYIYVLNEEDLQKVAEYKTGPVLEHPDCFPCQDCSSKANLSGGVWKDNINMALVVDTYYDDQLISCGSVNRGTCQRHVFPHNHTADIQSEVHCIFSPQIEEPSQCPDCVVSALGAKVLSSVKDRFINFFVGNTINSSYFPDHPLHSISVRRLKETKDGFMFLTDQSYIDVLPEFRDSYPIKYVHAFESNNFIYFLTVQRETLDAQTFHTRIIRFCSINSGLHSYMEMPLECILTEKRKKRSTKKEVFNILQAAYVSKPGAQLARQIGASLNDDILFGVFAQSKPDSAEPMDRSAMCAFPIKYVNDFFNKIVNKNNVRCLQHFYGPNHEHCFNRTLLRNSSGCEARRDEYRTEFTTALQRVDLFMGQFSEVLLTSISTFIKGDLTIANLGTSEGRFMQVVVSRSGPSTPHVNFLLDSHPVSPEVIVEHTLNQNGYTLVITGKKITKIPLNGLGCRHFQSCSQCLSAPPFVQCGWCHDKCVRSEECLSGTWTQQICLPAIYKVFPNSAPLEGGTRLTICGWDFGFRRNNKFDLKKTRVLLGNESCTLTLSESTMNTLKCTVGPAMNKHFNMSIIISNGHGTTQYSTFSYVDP
T8 sequence (P08581 25-631, change not shown): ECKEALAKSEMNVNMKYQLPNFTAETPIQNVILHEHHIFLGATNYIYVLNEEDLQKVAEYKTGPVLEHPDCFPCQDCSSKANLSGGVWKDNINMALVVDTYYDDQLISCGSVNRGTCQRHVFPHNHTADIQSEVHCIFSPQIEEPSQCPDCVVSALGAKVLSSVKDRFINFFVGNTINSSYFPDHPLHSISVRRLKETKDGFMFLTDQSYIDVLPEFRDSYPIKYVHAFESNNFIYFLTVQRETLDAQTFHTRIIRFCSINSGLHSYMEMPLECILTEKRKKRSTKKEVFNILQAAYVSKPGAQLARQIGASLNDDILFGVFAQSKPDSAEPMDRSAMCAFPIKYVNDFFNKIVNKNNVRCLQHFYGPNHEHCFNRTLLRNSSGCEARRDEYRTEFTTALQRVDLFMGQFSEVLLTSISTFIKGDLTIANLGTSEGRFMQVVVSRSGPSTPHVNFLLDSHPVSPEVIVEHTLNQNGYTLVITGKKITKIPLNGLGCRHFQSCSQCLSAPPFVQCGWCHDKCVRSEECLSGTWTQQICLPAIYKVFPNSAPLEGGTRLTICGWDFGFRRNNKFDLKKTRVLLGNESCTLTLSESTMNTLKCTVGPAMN
T5 sequence (P08581 25-563, change not shown): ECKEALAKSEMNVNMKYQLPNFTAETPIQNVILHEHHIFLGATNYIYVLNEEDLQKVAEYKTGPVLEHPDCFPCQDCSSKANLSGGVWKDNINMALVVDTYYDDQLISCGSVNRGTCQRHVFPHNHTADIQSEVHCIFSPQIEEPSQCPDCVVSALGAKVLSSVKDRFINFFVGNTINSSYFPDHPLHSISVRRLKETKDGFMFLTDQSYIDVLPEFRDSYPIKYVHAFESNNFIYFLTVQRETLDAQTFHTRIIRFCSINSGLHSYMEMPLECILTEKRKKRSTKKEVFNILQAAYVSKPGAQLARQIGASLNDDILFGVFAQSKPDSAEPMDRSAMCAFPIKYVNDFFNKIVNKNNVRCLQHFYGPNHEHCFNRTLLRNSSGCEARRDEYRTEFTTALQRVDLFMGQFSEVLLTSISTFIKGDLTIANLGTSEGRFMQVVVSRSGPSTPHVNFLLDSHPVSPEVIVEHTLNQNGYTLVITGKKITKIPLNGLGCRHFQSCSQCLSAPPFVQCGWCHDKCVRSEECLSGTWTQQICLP
T4 sequence (P08581 25-595, change not shown): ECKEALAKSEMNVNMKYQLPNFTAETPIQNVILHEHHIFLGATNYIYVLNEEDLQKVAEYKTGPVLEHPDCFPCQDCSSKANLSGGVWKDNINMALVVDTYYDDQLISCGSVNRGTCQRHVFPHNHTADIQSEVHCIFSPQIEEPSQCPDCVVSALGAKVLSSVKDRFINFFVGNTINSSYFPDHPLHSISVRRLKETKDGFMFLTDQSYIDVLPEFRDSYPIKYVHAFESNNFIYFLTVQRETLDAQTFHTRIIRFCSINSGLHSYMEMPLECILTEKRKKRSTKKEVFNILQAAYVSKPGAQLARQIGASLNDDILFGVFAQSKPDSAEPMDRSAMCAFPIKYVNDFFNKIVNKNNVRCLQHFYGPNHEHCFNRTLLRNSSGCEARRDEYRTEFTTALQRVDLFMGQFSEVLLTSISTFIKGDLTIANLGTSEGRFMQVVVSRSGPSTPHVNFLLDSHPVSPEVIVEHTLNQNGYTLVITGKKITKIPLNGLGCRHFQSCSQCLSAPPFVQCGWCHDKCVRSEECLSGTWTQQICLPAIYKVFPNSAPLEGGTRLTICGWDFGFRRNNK
T11 sequence (P08581 25-932): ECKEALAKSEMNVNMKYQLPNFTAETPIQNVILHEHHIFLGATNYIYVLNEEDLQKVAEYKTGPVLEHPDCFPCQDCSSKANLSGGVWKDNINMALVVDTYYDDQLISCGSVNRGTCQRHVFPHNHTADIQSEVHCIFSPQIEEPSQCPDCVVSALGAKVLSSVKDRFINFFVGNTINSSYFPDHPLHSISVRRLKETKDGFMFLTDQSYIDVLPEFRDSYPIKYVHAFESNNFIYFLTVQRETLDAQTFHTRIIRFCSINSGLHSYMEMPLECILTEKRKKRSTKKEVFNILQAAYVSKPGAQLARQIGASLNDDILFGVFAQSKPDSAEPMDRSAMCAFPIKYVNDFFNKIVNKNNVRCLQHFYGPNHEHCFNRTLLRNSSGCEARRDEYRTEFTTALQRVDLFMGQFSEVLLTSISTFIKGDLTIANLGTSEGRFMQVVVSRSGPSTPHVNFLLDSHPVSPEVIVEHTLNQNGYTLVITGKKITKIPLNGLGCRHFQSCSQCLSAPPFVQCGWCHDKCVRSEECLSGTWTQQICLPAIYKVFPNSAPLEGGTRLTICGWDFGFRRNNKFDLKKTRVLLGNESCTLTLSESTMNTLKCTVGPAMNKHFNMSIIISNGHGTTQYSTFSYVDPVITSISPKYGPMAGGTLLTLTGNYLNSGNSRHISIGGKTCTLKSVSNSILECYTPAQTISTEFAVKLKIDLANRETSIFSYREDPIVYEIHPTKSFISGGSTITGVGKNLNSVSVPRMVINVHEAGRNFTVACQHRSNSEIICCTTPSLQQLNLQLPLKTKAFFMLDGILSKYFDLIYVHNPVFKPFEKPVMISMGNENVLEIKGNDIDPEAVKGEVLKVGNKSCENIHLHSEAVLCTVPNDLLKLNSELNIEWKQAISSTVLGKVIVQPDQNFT
T14 sequence (P08581 373-933, change not shown): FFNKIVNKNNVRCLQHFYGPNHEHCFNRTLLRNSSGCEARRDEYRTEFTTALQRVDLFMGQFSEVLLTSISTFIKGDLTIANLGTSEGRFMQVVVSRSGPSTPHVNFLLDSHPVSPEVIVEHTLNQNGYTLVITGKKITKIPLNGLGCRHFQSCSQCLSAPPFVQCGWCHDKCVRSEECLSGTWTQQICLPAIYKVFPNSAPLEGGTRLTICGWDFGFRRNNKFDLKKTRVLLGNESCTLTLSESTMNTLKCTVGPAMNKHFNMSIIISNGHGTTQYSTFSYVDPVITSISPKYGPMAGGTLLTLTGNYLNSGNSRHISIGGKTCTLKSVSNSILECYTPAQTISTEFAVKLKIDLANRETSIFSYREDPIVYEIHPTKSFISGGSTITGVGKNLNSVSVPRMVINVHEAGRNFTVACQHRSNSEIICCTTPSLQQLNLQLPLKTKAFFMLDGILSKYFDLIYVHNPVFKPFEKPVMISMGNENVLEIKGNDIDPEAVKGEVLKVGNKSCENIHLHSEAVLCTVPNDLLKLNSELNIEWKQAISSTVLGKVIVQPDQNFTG
T13 sequence (P08581 25-932 limits assumed): as the sequence (P08581 25-932) above
T2 sequence (P08581 25-932 limits assumed): as the sequence (P08581 25-932) above
T12 sequence (P08581 25-932 limits assumed): as the sequence (P08581 25-932) above

B1: 36C4 mAb (antibody, V domains shown)
VH: QVQLVESGPGLVKPSQTLSLTCAVSGGSITTNYYYWSWIRQSPGKGLEWMGVIAYDGSTDYSPSLKSRTSISRDTSKNQFSLQLSSVTPEDTAVYYCARDVRVIATGWATANALDAWGQGTLVTVSS
VL: QSVLTQPPSVSGSPGKTVTISCAGTSSDVGYGNYVSWYQQLPGTAPKLLIFAVSYRASGIPDRFSGSKSGNTAFLTISGLQSEDEADYYCASYRSSNNAAVFGGGTHLTVL
notes: also called SIMPLE antibody 36C4
EC50 (read off the curve) [1]: ~600 pM | EC50 (read off the curve) [2]: ~600 pM | EC50 [3]: 0.14 nM | EC50 [4]: 0.047 µg/mL | EC50 [5]: 0.047 µg/mL | EC50 [6]: 0.05 µg/mL | EC50 [7]: 0.045 µg/mL | EC50 [8]: 0.047 µg/mL | EC50 [9]: 0.068 µg/mL | EC50 [10]: 0.055 µg/mL | EC50 (read off the curve) [11]: ~20 ng/mL | EC50 [12]: 0.13 nM | EC50 [13]: 0.06 µg/mL | IC50 (read off the curve) [14]: ~200 pM

B2: 48A2 mAb (antibody, V domains shown)
VH: EVQLVQPGVELRNPGASVKVSCKASGYIFTMNSIDWVRQAPGQGLEWMGRIDPEDGGTKYAQKFQGRVTFTADTSTSTAYVELNSLRSEDTAVYYCARVDDYYLGYDYWGQGTQVTVSS
VL: DIVMTQTPTSVTASAGDKVTINCKSSQSVLFSSNQKNYLAWYQQRLGQSPRLLIYWASIRESGVPDRFSGSGSATDFTLTISNFQPEDAAVYYCQQGYSFPYSFGSGTRLEIR
EC50 [15]: > 0.04 µg/mL | EC50 [16]: > 0.04 µg/mL | EC50 [17]: 0.07 µg/mL | EC50 [18]: 0.042 µg/mL | EC50 [19]: 0.05 µg/mL | EC50 [20]: > 0.04 µg/mL | EC50 [21]: 0.034 µg/mL | EC50 [22]: 0.05 µg/mL | EC50 [23]: 0.031 µg/mL
